Our source for the Kd values is PMC11623273 (2024).

The test deals with T1, soluble HCV E2 ectodomain (sE2) (hepatitis C virus).
T1 chain: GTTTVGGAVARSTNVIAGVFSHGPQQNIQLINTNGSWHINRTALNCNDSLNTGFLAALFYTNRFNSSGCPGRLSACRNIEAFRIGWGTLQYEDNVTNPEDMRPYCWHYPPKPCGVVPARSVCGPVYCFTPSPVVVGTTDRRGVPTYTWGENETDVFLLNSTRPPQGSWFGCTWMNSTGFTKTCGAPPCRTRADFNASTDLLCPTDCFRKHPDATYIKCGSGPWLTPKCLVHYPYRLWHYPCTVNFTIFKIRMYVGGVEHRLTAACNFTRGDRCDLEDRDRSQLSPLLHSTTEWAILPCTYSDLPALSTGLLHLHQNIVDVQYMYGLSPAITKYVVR

B1: Fab fragment of neutralizing antibody HCV1 (Fab, V domains shown)
VH: EVQLLESGGGVVQPGRSLRLSCTASGFTFNNYGMHWVRQTPGKGLEWLAVIWFDENNKYYADSVRGRFTISRDNSKNTLFLQMNSLKTEDTAMYYCARDISLVRDAFIYFDFWGLGTLVTVSS
VL: ELTLTQSPATLSLSPGERATLSCRASQSVSSYLAWYQQKPGQAPRLLIYDASNRATGIPARFSGSGSGTDFTLTISSLEPEDFAVYYCQQRSNWITFGQGTRLEIK
B1 came in with a Kd of 294 nM.

By Kd is commonly meant the constant that tells how readily two partners part at equilibrium.
